In patent publication US20260008815A1, “CYCLIC PEPTIDE OR SALT THEREOF, AND USES THEREOF” (FUJIFILM Corporation, priority 2023, published 2026):
Bridge positions count the residues as written; N and C are the ends. Ends that are not written are not given here. COCH2 = acetyl group that carries the bridge

B1: cyclic peptide SEQ ID NO: 344 (peptide)
peptide: YCEENYLDPEQYQYFKYFK(COCH2)Y
modifications: thioether 2-19; not fully specified; printed as Y-(C)-EENYLDPEQYQYFKYF-(K(acetyl))-Y
B2: cyclic peptide SEQ ID NO: 345 (peptide)
peptide: YCEENYLDPEQYQYFIKFK(COCH2)Y
modifications: thioether 2-19; not fully specified; printed as Y-(C)-EENYLDPEQYQYFIKF-(K(acetyl))-Y
B3: cyclic peptide SEQ ID NO: 346 (peptide)
peptide: YCEENYLDPEQYQYFIYFK(COCH2)K
modifications: thioether 2-19; not fully specified; printed as Y-(C)-EENYLDPEQYQYFIYF-(K(acetyl))-K

Biological target: T1, Recombinant Human FGFR2 alpha (IIIc) Fc Chimera Protein, CF (R&D systems, 712-FR-050) (human, UniProt P21802 22-377)
T1 construct: bought; not shown: Fc part of the chimera
T1 sequence (P21802 22-377, change not shown): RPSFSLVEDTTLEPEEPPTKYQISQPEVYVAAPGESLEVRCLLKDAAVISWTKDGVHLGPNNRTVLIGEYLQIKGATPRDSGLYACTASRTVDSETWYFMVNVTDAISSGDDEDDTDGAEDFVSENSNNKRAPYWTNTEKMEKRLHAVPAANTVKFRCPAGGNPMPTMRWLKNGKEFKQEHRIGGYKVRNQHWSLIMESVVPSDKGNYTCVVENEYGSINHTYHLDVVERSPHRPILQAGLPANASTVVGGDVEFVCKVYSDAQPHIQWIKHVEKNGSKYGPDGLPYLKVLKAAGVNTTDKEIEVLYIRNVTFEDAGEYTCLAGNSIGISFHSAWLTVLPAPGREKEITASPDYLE
Test: ELISA on plate-bound FGFR2-Fc
Outline: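 Peptide binding scored by category from dose-response of background-corrected luminescence (FGFR-coated minus uncoated wells). Detection via anti-Myc antibody (2 h, room temperature) after 3 h peptide incubation on wells coated with 5 ng FGFR2 alpha (IIIc)-Fc.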

Binder | ELISA luminescence signal at 10 nmol/L peptide, relative to SEQ ID NO: 47 (=1) [ratio]
ACEYNYWNQVQFTFLIAFK(COCH2)R (thioether 2-19 (inferred)) [cyclic peptide SEQ ID NO: 44] | 0.5 to 0.7
SCIQQNYFWQYVFERYRYK(COCH2)Q (thioether 2-19 (inferred)) [cyclic peptide SEQ ID NO: 46] | 0.5 to 0.7
B1 | ≥ 0.7
YCEENYLDPEQYQYFHYFK(COCH2)H (thioether 2-19) [cyclic peptide SEQ ID NO: 391] | ≥ 0.7
MCEENYLDPEQYQYFIYFK(COCH2)Y (thioether 2-19) [cyclic peptide SEQ ID NO: 347] | ≥ 0.7
YCEENYMDPEQYQYFIYFK(COCH2)Y (thioether 2-19) [cyclic peptide SEQ ID NO: 351] | ≥ 0.7
YCEENYLDPEQMQYFIYFK(COCH2)Y (thioether 2-19) [cyclic peptide SEQ ID NO: 355] | 0.1 to 0.5
YCEENYLDMEQYQYFIYFK(COCH2)Y (thioether 2-19) [cyclic peptide SEQ ID NO: 353] | ≥ 0.7
YCEENYLDPEQYMYFIYFK(COCH2)Y (thioether 2-19) [cyclic peptide SEQ ID NO: 356] | ≥ 0.7
YCEENYLDPEQYQYFHYFK(COCH2)R (thioether 2-19) [cyclic peptide SEQ ID NO: 390] | 0.1 to 0.5
YCMENYLDPEQYQYFIYFK(COCH2)Y (thioether 2-19) [cyclic peptide SEQ ID NO: 348] | ≥ 0.7
YCEMNYLDPEQYQYFIYFK(COCH2)Y (thioether 2-19) [cyclic peptide SEQ ID NO: 349] | ≥ 0.7
B2 | ≥ 0.7
YCHENYLDPEQYQYFHYFK(COCH2)Y (thioether 2-19) [cyclic peptide SEQ ID NO: 392] | ≥ 0.7
YCHENYLDPEQYQYFHYFK(COCH2)H (thioether 2-19) [cyclic peptide SEQ ID NO: 395] | ≥ 0.7
YCEENYLMPEQYQYFIYFK(COCH2)Y (thioether 2-19) [cyclic peptide SEQ ID NO: 352] | ≥ 0.7
YCEENYLDPEQYQMFIYFK(COCH2)Y (thioether 2-19) [cyclic peptide SEQ ID NO: 357] | 0.1 to 0.5

Binder | ELISA luminescence signal at 10 nmol/L peptide, relative to SEQ ID NO: 47 (=1) [ratio]
B3 | ≥ 0.7
YCEENYLDPEQYQYFIMFK(COCH2)Y (thioether 2-19) [cyclic peptide SEQ ID NO: 359] | ≥ 0.7
YCEENMLDPEQYQYFIYFK(COCH2)Y (thioether 2-19) [cyclic peptide SEQ ID NO: 350] | ≥ 0.7
YCHENYLDPEQHQYFIYFK(COCH2)R (thioether 2-19) [cyclic peptide SEQ ID NO: 398] | 0.5 to 0.7
YCHENYLDPEQHQYFHYFK(COCH2)Y (thioether 2-19) [cyclic peptide SEQ ID NO: 393] | 0.1 to 0.5
YCEENYLDPEQHQYFIYFK(COCH2)H (thioether 2-19) [cyclic peptide SEQ ID NO: 397] | ≥ 0.7
YCEENYLDPEQYQYFIYFK(COCH2)M (thioether 2-19) [cyclic peptide SEQ ID NO: 360] | ≥ 0.7
YCHENYLDPEQYQYFHYFK(COCH2)R (thioether 2-19) [cyclic peptide SEQ ID NO: 394] | 0.5 to 0.7
YCEENYLDPMQYQYFIYFK(COCH2)Y (thioether 2-19) [cyclic peptide SEQ ID NO: 354] | ≥ 0.7
YCEENYLDPEQHQYFIYFK(COCH2)R (thioether 2-19) [cyclic peptide SEQ ID NO: 396] | 0.5 to 0.7
YCEENYLDPEQYQYFMYFK(COCH2)Y (thioether 2-19) [cyclic peptide SEQ ID NO: 358] | ≥ 0.7
TCPQNFRDELQFTYFTQYK(COCH2)Y (thioether 2-19 (inferred)) [cyclic peptide SEQ ID NO: 45] | ≥ 0.7
QCPQNFINPVQWRYFQHYK(COCH2)N (thioether 2-19 (inferred)) [cyclic peptide SEQ ID NO: 80] | ≥ 0.7
KCPANFINPVQWRYFQHYKN (thioether ring (C)-(K(acetyl))) [cyclic peptide SEQ ID NO: 55] | ≥ 0.7
ACPQNFINPVQWRYFQHYK(COCH2)N (thioether 2-19 (inferred)) [cyclic peptide SEQ ID NO: 53] | ≥ 0.7
KCAQNFINPVQWRYFQHYKN (thioether ring (C)-(K(acetyl))) [cyclic peptide SEQ ID NO: 54] | ≥ 0.7
KCPQNFINPVQWRYFQHYKN (thioether ring (C)-(K(acetyl))) [cyclic peptide SEQ ID NO: 47] | ≥ 0.7
